Unfolding free energy data for 1 protein are collected here from FireProtDB (doi:10.1110/ps.051838206).

“And” between values parts separate entries of the source, which are not always exact repeats. Equal values may be shown once.

The conditions of this data set: Pseudomonas aeruginosa (strain ATCC 15692 / DSM 22644 / CIP 104116 / JCM 14847 / LMG 12228 / 1C / PRS 101 / PAO1); pH 7; 25 °C; GdnHCl; Fluorescence; Tris-HCl 100 mM; reversible: Yes; whole UniProt chain shown.

B1: Azurin wild type, P00282 (protein)
chain: MLRKLAAVSLLSLLSAPLLAAECSVDIQGNDQMQFNTNAITVDKSCKQFTVNLSHPGNLPKNVMGHNWVLSTAADMQGVVTDGMASGLDKDYLKPDDSRVIAHTKLIGSGEKDSVTFDVSKLKEGEQYMFFCTFPGHSALMKGTLTLK
In the case of B1, the unfolding free energy was 5.98 kcal/mol and 12.9 kcal/mol.
